Assay results as given in PMC7125077.
pKd: −log10 of the molar value. Blank lines part the entries; values can stand above or below the substance they belong to.

Columns and labels:
[1] = biological target: Chaetomium thermophilum XPD, wild type (Chaetomium thermophilum)
[2] = biological target: Chaetomium thermophilum XPD, wild type (Chaetomium thermophilum); assay: native gel or EMSA; native PAGE of ctXPD with the ctMAT1 fragments ctMAT1Archway and ctMAT1Lock at similar concentrations (Supplementary Fig. 2c); unbound fragment quantified
[3] = biological target: T1, human XPD, wild type (XPD-FLAG) (human) (UniProt P18074)
T1 sequence: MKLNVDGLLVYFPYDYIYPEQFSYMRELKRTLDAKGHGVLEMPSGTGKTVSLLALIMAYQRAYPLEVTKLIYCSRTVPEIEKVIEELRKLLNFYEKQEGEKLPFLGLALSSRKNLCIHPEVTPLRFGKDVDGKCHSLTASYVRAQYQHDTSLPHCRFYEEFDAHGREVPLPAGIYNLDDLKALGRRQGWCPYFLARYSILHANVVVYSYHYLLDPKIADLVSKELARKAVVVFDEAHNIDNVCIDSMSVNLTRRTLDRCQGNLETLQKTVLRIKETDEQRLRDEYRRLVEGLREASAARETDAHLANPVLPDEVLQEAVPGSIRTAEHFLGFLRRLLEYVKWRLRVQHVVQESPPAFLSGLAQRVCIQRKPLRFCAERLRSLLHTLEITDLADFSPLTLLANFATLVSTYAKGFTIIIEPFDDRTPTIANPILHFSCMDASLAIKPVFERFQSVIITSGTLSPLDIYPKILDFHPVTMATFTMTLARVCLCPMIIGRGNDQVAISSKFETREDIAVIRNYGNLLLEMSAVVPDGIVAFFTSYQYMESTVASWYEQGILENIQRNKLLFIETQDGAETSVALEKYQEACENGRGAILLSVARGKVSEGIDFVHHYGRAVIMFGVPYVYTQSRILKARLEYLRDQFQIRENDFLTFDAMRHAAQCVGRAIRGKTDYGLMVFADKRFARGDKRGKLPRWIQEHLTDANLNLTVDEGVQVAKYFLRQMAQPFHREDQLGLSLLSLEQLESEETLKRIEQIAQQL

[4] = test system: ctDDX11 K427E/K428E (Chaetomium thermophilum); assay: fluorescence anisotropy; settings: 1 mM MgSO4, 25 mM HEPES pH 7.5, 25 mM KCl, 2 nM DNA, ctXPD: 20 mM HEPES pH 7.5, 50 mM KCl, 5 mM MgCl2, 1 mM TCEP, 5 nM DNA, room temperature, ctDDX11: 25 mM HEPES pH 7.5, 25 mM KCl, 1 mM MgSO4, 1 mM TCEP
[5] = test system: ctDDX11 wild type (Chaetomium thermophilum); assay: fluorescence anisotropy; settings: 1 mM MgSO4, 25 mM HEPES pH 7.5, 25 mM KCl, 2 nM DNA, ctXPD: 20 mM HEPES pH 7.5, 50 mM KCl, 5 mM MgCl2, 1 mM TCEP, 5 nM DNA, room temperature, ctDDX11: 25 mM HEPES pH 7.5, 25 mM KCl, 1 mM MgSO4, 1 mM TCEP
[6] = test system: ctXPD K369E (Chaetomium thermophilum); assay: fluorescence anisotropy; settings: 5 mM Mg2+; no MAT1; text gives 54 nM; ctXPD: 20 mM HEPES pH 7.5, 50 mM KCl, 5 mM MgCl2, 1 mM TCEP, 5 nM DNA, room temperature; ctDDX11: 25 mM HEPES pH 7.5, 25 mM KCl, 1 mM MgSO4, 1 mM TCEP, 2 nM …
[7] = test system: ctXPD R323E (Chaetomium thermophilum); assay: fluorescence anisotropy; settings: 5 mM Mg2+; no MAT1; ctXPD: 20 mM HEPES pH 7.5, 50 mM KCl, 5 mM MgCl2, 1 mM TCEP, 5 nM DNA, room temperature; ctDDX11: 25 mM HEPES pH 7.5, 25 mM KCl, 1 mM MgSO4, 1 mM TCEP, 2 nM …
[8] = test system: ctXPD R323S/R324S (Chaetomium thermophilum); assay: fluorescence anisotropy; settings: 5 mM Mg2+, ctXPD: 20 mM HEPES pH 7.5, 50 mM KCl, 5 mM MgCl2, 1 mM TCEP, 5 nM DNA, room temperature, ctDDX11: 25 mM HEPES pH 7.5, 25 mM KCl, 1 mM MgSO4, 1 mM TCEP, 2 nM …
[9] = test system: ctXPD R324E (Chaetomium thermophilum); assay: fluorescence anisotropy; settings: 5 mM Mg2+; no MAT1; ctXPD: 20 mM HEPES pH 7.5, 50 mM KCl, 5 mM MgCl2, 1 mM TCEP, 5 nM DNA, room temperature; ctDDX11: 25 mM HEPES pH 7.5, 25 mM KCl, 1 mM MgSO4, 1 mM TCEP, 2 nM …
[10] = test system: ctXPD R333E/R334E (Chaetomium thermophilum); assay: fluorescence anisotropy; settings: 5 mM Mg2+; no MAT1; ctXPD: 20 mM HEPES pH 7.5, 50 mM KCl, 5 mM MgCl2, 1 mM TCEP, 5 nM DNA, room temperature; ctDDX11: 25 mM HEPES pH 7.5, 25 mM KCl, 1 mM MgSO4, 1 mM TCEP, 2 nM …
[11] = test system: ctXPD R333S/R334S (Chaetomium thermophilum); assay: fluorescence anisotropy; settings: 5 mM Mg2+, ctXPD: 20 mM HEPES pH 7.5, 50 mM KCl, 5 mM MgCl2, 1 mM TCEP, 5 nM DNA, room temperature, ctDDX11: 25 mM HEPES pH 7.5, 25 mM KCl, 1 mM MgSO4, 1 mM TCEP, 2 nM …
[12] = test system: ctXPD wild type (Chaetomium thermophilum); assay: fluorescence anisotropy; settings: 5 mM Mg2+; no MAT1; ctXPD: 20 mM HEPES pH 7.5, 50 mM KCl, 5 mM MgCl2, 1 mM TCEP, 5 nM DNA, room temperature; ctDDX11: 25 mM HEPES pH 7.5, 25 mM KCl, 1 mM MgSO4, 1 mM TCEP, 2 nM …
[13] = test system: ctXPD wild type;ctMAT1Lock (Chaetomium thermophilum;Chaetomium thermophilum); assay: fluorescence anisotropy; settings: 5 mM Mg2+; equimolar ctMAT1Lock; ctXPD: 20 mM HEPES pH 7.5, 50 mM KCl, 5 mM MgCl2, 1 mM TCEP, 5 nM DNA, room temperature; ctDDX11: 25 mM HEPES pH 7.5, 25 mM KCl, 1 mM MgSO4, 1 mM TCEP, 2 nM …
[14] = biological target: ctXPD K369A (Chaetomium thermophilum)
[15] = equimolar ctMAT1Lock present (not bound by variant)

inhibition of ctXPD helicase activity (with ctp44, 5' overhang substrate) by titration of the ctMAT1 construct, IC50 [1]: 2990 nM
percent unbound ctMAT1 fragment [2]: 84%
Substance: ctMAT1Archway (residues 83-157 of Chaetomium thermophilum MAT1) (domain or fragment)

in vitro run-off transcription with core-TFIIH lacking XPD (rIIH6), XPD and the CAK variant, residual activity against wild-type CAK [3]: 55%
Substance: human CAK with MAT1 D97S/E100S (from UniProt P51948 1-309; P50613 1-346; P51946 1-323) (complex)

Substance: AGCTACCATGCCTGCACGAATTAAGCAATTCGTAATCATGGTCATAGC / GCTATGACCATGATTACGAATTGCTTGGAATCCTGACGAACTGTAG [splayed duplex DNA]
pKd [4]: 7.29
pKd [5]: 7.51
pKd [6]: 7.26
pKd [7]: 7.39
pKd [8, 15]: 7.51
pKd ([8]; no MAT1): 7.29
pKd [9]: 7.14
pKd [10]: 6.97
pKd [11, 15]: 6.89
pKd ([11]; no MAT1): 6.81
pKd [12]: 7.18
pKd [13]: 6.42

inhibition of ctXPD helicase activity (with ctp44, 5' overhang substrate) by titration of the ctMAT1 construct, IC50 [1]: 220 nM
inhibition of helicase activity of the ctXPD variant by ctMAT1Lock, IC50 [14]: 263 nM
percent unbound ctMAT1 fragment [2]: 12.8%
Substance: ctMAT1Lock (residues 1-157 of Chaetomium thermophilum MAT1) (domain or fragment)
